Patent US20240165153A1

Columns and labels:
CD19 = CD19 (UniProt P15391); assay: cell-based or functional assay
CD20 = CD20 (UniProt P11836); assay: cell-based or functional assay
Sequence of UniProt P11836 (P11836 whole entry): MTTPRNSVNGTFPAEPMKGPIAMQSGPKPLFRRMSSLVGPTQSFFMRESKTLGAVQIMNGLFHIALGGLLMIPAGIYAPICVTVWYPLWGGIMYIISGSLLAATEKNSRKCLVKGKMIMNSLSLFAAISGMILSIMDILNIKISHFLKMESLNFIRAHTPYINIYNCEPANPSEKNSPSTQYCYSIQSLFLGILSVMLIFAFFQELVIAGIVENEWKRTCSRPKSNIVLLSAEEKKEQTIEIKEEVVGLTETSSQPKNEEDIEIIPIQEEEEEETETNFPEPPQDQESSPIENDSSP

Sequence of UniProt P15391 (P15391 20-556 limits assumed): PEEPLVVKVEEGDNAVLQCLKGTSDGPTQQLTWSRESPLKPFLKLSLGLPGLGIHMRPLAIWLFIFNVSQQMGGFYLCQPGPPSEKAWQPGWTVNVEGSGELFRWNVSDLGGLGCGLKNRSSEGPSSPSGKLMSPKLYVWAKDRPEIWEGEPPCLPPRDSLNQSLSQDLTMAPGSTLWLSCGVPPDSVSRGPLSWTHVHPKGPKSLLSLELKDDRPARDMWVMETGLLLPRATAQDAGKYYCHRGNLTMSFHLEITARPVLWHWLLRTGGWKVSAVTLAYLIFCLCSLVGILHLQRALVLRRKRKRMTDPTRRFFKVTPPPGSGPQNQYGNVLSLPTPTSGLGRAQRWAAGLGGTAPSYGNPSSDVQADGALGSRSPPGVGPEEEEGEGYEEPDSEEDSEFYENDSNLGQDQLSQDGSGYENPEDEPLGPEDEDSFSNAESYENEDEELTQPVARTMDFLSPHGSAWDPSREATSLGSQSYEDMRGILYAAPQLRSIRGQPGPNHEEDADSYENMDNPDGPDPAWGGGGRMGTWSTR

CFSE median fluorescence intensity (lower = more proliferation), FIG. 9B, CD4+ T cells with Hu1928-Hu20BB long 10-21-2020, 4 days with CD19-K562 (NGFR-K562 control 28478) (relative fluorescence units) (CD19): 1410
CFSE median fluorescence intensity (lower = more proliferation), FIG. 10B, CD8+ T cells with Hu1928-Hu20BB long 10-21-2020, 4 days with CD19-K562 (NGFR-K562 control 24978) (relative fluorescence units) (CD19): 1770
IFNγ ELISA of supernatant; T cells transduced with Hu1928-Hu20BB long 10-21-2020, overnight with CD19-K562 (CD19): 8210 pg/mL
IFNγ release; T cells transduced with Hu1928-Hu20BB long 10-21-2020, with CD19-K562 (CD19): 37500
IFNγ release; T cells transduced with monospecific 10-5-2020 Hu19-CD828Z, with CD19-K562 (untransduced T cells: 217.2) (CD19): 22000
IFNγ release; T cells transduced with monospecific 10-5-2020 Hu19-CD828Z, with ST486, which expresses CD19 (weakly) and CD20 (untransduced T cells: 1674.8) (CD19): 2070
IFNγ release; T cells transduced with monospecific 10-5-2020 Hu19-CD828Z, with Toledo, which expresses CD19 and CD20 (untransduced T cells: 542.3) (CD19): 3200
IL-2 ELISA of supernatant; T cells transduced with Hu1928-Hu20BB long 10-21-2020, overnight with CD19-K562 (CD19): 496 pg/mL
IFNγ release; T cells transduced with monospecific 10-5-2020 Hu19-CD828Z, with CD19-negative CD20-K562 (untransduced T cells: 201.3) (CD20): 291
IFNγ release; T cells transduced with monospecific 10-5-2020 Hu19-CD828Z, with ST486 CD19-negative (untransduced T cells: 1464.3) (CD20): 1360
IFNγ release; T cells transduced with monospecific 10-5-2020 Hu19-CD828Z, with Toledo CD19-negative (untransduced T cells: 372.7) (CD20): 702
Substance: 10-5-2020 Hu19-CD828Z (anti-CD19 chimeric antigen receptor)
